Target: T1, CD20 (Acro Biosystems) (UniProt P11836 1-297)
T1 sequence (looked up): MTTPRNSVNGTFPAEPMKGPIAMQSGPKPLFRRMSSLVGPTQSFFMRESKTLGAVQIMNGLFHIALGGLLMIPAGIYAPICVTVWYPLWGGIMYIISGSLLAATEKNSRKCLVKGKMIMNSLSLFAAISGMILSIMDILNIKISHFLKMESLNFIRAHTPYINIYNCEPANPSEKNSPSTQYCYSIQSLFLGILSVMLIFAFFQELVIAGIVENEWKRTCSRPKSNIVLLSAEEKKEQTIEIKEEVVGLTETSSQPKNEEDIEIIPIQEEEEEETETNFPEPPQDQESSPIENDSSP

B1: rituximab (antibody, human IgG1, kappa, V domains shown)
VH: QVQLQQPGAELVKPGASVKMSCKASGYTFTSYNMHWVKQTPGRGLEWIGAIYPGNGDTSYNQKFKGKATLTADKSSSTAYMQLSSLTSEDSAVYYCARSTYYGGDWYFNVWGAGTTVTVSA
VL: QIVLSQSPAILSASPGEKVTMTCRASSSVSYIHWFQQKPGSSPKPWIYATSNLASGVPVRFSGSGSGTSYSLTISRVEAEDAATYYCQQWTSNPPTFGGGTKLEIKR
Kd: < 1 pM | koff: < 1e-07 s⁻¹ | kon: 140000 M⁻¹ s⁻¹
